The values that follow come from patent US20170044269A1 (WASHINGTON UNIVERSITY, published 2017).

The target in experiment [1] is T1, purified human carcinoembryonic antigen (hCEA) protein (human, UniProt P06731 35-685, limits assumed).
T1 construct: Bought protein coated on ELISA plates or used in solution to pre-incubate the virus; also called human CEA protein; recombinant hCEA protein (ab742)
T1 sequence (looked up): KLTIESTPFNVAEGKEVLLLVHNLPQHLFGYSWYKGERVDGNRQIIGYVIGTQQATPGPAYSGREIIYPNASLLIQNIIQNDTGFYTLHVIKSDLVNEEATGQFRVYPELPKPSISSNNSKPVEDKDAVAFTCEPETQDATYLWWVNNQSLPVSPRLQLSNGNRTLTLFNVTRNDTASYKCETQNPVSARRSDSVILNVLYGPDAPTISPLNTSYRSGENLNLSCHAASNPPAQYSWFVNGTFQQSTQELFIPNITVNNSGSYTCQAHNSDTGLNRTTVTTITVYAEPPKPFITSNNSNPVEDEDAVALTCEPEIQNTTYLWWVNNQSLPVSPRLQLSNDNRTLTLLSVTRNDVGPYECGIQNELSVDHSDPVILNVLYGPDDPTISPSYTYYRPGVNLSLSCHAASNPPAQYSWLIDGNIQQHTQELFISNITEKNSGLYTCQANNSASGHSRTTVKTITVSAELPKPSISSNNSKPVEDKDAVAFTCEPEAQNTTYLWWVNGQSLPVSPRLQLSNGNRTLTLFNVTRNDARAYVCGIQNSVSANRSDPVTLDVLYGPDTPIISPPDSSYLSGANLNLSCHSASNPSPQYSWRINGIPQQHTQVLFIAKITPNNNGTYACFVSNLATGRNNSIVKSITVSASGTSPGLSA
Put plainly: dilution ELISA, hCEA coated on plate, VHH detected with HRP/anti-E-tag mAb.
Protocol: Nunc Maxisorb plates (Nunc) were coated overnight at 4° C. with 1 μg/ml human CEA protein (Abeam, Cambridge, Mass.). The plates were blocked in binding buffer containing 5% w/v non-fat milk in Tris-buffered saline (TBS). […] Plates were incubated at 25° C. for one hour and then washed three times with TBS. Bound VHHs were detected with HRP/anti-E-tag mAb (Bethyl Laboratories, Montgomery, Tex.).
The plates for enzyme-linked immunosorbent assay were coated with purified hCEA protein and then purified VHH were added in wells at various concentrations. (FIG. 2A) Bound VHHs were detected with HRP/anti-E-tag mAb. […] The EC₅₀ values are the VHH concentration that produced 50% maximum signal on the ELISAs.

The target of experiment [2] is T2, human carcinoembryonic antigen (hCEA) expressed on cells (human, UniProt P06731 35-685).
T2 sequence (looked up): T1 sequence (looked up)
Put plainly: cell-based or functional assay.

The target of experiment [3] is T2, human carcinoembryonic antigen (hCEA) …. In words: cell binding for one hour at 5x10^3 v.p. per cell, hexon qPCR; hCEA up-regulated by irradiation. In general terms: In qPCR the cycle at which signal appears reflects the starting amount.
For experiment [4] the target is unchanged. Put plainly: cell binding for one hour at 1x10^3 vp per cell, Ad hexon gene copy number per 20 ng total DNA by qPCR.
Experiment [5] deals with T1, purified human carcinoembryonic antigen …. In words: ELISA, hCEA coated on plate, virions detected with anti-adenovirus goat Ab. Background: An ELISA detects its analyte on a solid surface through an enzyme-linked reagent.
Experiment [6] addresses T2, human carcinoembryonic antigen (hCEA) …. In words: cell binding for one hour, Ad hexon gene copy number by qPCR, MC38CEA against MC38 cells.

Usually EC50 stands for the midpoint of the concentration-response curve. Read a low EC50 as an effect from little substance.

B1: JJB-A3 (VHH)
VHH: QVQLVETGGGLVQPGGSLRLSCAASGRISDINAMGWYRQAPGKQRELVAAITSVGSNYVDSVKGRFTISKDNAKNTVYLQMYSLNPEDTAVYYCNTQCGTWLVCDGRDQWGKGTLVTVSS
notes: Alpaca anti-hCEA VHH, expressed and purified as a thioredoxin fusion protein; the methods name only JJB-A3; not shown: Thioredoxin fusion partner, E-tag and any linkers
Turning to B1, the EC50 in experiment [1] was about 0.15 nM.

B2: AdB2Luc (Ad5 vector displaying anti-hCEA fiber-fibritin-VHH chimera, clone B2) (other)
chain: MKRARPSEDTFNPVYPYDTETGPPTVPFLTPPFVSPNGFQESPPGVLSLRLSEPLVTSNGMLALKMGNGLSLDEAGNLTSQNVYSRLNEIDTKQTTVESDISAIKTSIGYPGNNSIITSVNTNTDNIASINLELNQSGGIKQRLTVIETSIGSDDIPSSIKGQIKDNTTSIESLNGIVGENTSSGLRANVSWLNQIVGTDSSGGQPSPPGSLLNRVSTIETSVSGLNNAVQNLQVEIGNNSAGIKGQVVALNTLVNGTNPNGSTVEERGLTNSIKANETNIASVTQEVNTAKGNISSLQGDVQALQEAGYIPEAPRDGQAYVRKDGEWVFLSTFLSPAGGGGSQVQLVETGGGLVQPGGSLRLSCAASESIFSTYAMGWYRQAPGKQRELVAAITTNDIANYADSVKGRFTISRDNAKNTVYLQMNSLNPEDTAVYYCNAIFPPYNYWGQGTQVTVSSEPKTPKPQ
notes: domain: N-terminal Ad5 fiber tail region;domain: entire fibritin protein with the trimerizing foldon domain; The chimeric fiber stood in the assay on whole purified Ad5 virus particles (other capsid proteins present); also called FF-VHH B2; FF-B2
With B2, in experiment [2], the “reporter gene (Luc) expression in hCEA-positive MC38CEA cells in comparison with MC38 cells” value is over 55 fold. Besides, in experiment [3], the “fold increase of Ad hexon gene copy number in irradiated (6 Gy) against mock-treated A549 cells” value turned out to be 5.1 fold, the “fold increase of Ad hexon gene copy number in irradiated (6 Gy) against mock-treated LS174T cells” value worked out at 3.2 fold and the “fold increase of Ad hexon gene copy number in irradiated (6 Gy) against mock-treated PC-3 cells” value is 2.8 fold.

B3: JJB-B2 (VHH)
VHH: QVQLVETGGGLVQPGGSLRLSCAASESIFSTYAMGWYRQAPGKQRELVAAITTNDIANYADSVKGRFTISRDNAKNTVYLQMNSLNPEDTAVYYCNAIFPPYNYWGQGTQVTVSS
notes: Alpaca anti-hCEA VHH, expressed and purified as a thioredoxin fusion protein; also called clone B2; B2 sdAb; not shown: Thioredoxin fusion partner, E-tag and any linkers
As for B3, the EC50 in experiment [1] was about 0.2 nM.

B4: Ad.CXCR4E1.B2 (conditionally replicative Ad5 with fiber-fibritin chimera expressing anti-hCEA sdAb clone B2) (other)
chain: MKRARPSEDTFNPVYPYDTETGPPTVPFLTPPFVSPNGFQESPPGVLSLRLSEPLVTSNGMLALKMGNGLSLDEAGNLTSQNVYSRLNEIDTKQTTVESDISAIKTSIGYPGNNSIITSVNTNTDNIASINLELNQSGGIKQRLTVIETSIGSDDIPSSIKGQIKDNTTSIESLNGIVGENTSSGLRANVSWLNQIVGTDSSGGQPSPPGSLLNRVSTIETSVSGLNNAVQNLQVEIGNNSAGIKGQVVALNTLVNGTNPNGSTVEERGLTNSIKANETNIASVTQEVNTAKGNISSLQGDVQALQEAGYIPEAPRDGQAYVRKDGEWVFLSTFLSPAGGGSQVQLVETGGGLVQPGGSLRLSCAASESIFSTYAMGWYRQAPGKQRELVAAITTNDIANYADSVKGRFTISRDNAKNTVYLQMNSLNPEDTAVYYCNAIFPPYNYWGQGTQVTVSSEPKTPKPQ
notes: domain: N-terminal Ad5 fiber tail region;domain: trimerizing domain of the fibritin protein; Chimeric fiber on whole purified virus particles; also called FFB2; fiber-fibritin-B2
With B4, in experiment [4], the “fold binding to hCEA(+) MC38CEA cells against hCEA(-) MC38 cells” value was about 25 fold.

B5: AdC17Luc (Ad5 vector displaying anti-hCEA fiber-fibritin-VHH chimera, clone C17) (other)
chain: MKRARPSEDTFNPVYPYDTETGPPTVPFLTPPFVSPNGFQESPPGVLSLRLSEPLVTSNGMLALKMGNGLSLDEAGNLTSQNVYSRLNEIDTKQTTVESDISAIKTSIGYPGNNSIITSVNTNTDNIASINLELNQSGGIKQRLTVIETSIGSDDIPSSIKGQIKDNTTSIESLNGIVGENTSSGLRANVSWLNQIVGTDSSGGQPSPPGSLLNRVSTIETSVSGLNNAVQNLQVEIGNNSAGIKGQVVALNTLVNGTNPNGSTVEERGLTNSIKANETNIASVTQEVNTAKGNISSLQGDVQALQEAGYIPEAPRDGQAYVRKDGEWVFLSTFLSPAGGGGSEVQLVESGGGFVQAGESLTLSCTSSTLSCTSSTLTFTPYRMAWYRQAPGKQRDLVADISSGDGRTTNYADFAKGRFTISRDNIKNTVFLRMTNLKPEDTAVYYCNTFVSFVGIARSWGQGTQVTVSSEP
Consider B5, for which the “Luc expression in hCEA+ cells (MC38CEA against MC38)” value in experiment [2] is about 4 fold.

B6: JJB-D1 (VHH)
VHH: QVQLVESGGLVQAGGSLRPSCAASGSIFLQNAMGWYRQVPGKQRELVAAITSVDSTNYADSVKGRFTISRDNAKNTVYLQMNSLKPEDTAVYYCNAPWNSDYHWGKGTLVTVSS
notes: Alpaca anti-hCEA VHH, expressed and purified as a thioredoxin fusion protein; not shown: Thioredoxin fusion partner, E-tag and any linkers
In experiment [1], B6 gave an EC50 of about 1 nM.

B7: AdVHH122Luc (Ad5 vector displaying anti-EGFR fiber-fibritin-VHH chimera, clone VHH122) (other)
chain: MKRARPSEDTFNPVYPYDTETGPPTVPFLTPPFVSPNGFQESPPGVLSLRLSEPLVTSNGMLALKMGNGLSLDEAGNLTSQNVYSRLNEIDTKQTTVESDISAIKTSIGYPGNNSIITSVNTNTDNIASINLELNQSGGIKQRLTVIETSIGSDDIPSSIKGQIKDNTTSIESLNGIVGENTSSGLRANVSWLNQIVGTDSSGGQPSPPGSLLNRVSTIETSVSGLNNAVQNLQVEIGNNSAGIKGQVVALNTLVNGTNPNGSTVEERGLTNSIKANETNIASVTQEVNTAKGNISSLQGDVQALQEAGYIPEAPRDGQAYVRKDGEWVFLSTFLSPAGGGGSEVQLQESGGGLVQAGDSLRLSCLVSGRSFNSYTMGWFRQAPGKEREFVAAILWSGPTTYYADSVKGRFTISRDNAKNTVYLQMNSLKPEDTAVYYCAAALGVLVLAPGNVYSYWGQGTQVTVSS
notes: domain: N-terminal Ad5 fiber tail region;domain: entire fibritin protein with the trimerizing foldon domain; Isogenic control vector; chimeric fiber on whole purified Ad5 virus particles; also called FF-VHH122
With B7, in experiment [5], the binding result is “no binding”.

B8: Ad5Luc (Ad5 vector with wild-type Ad5 fiber) (other)
chain: MKRARPSEDTFNPVYPYDTETGPPTVPFLTPPFVSPNGFQESPPGVLSLRLSEPLVTSNGMLALKMGNGLSLDEAGNLTSQNVTTVSPPLKKTKSNINLEISAPLTVTSEALTVAAAAPLMVAGNTLTMQSQAPLTVHDSKLSIATQGPLTVSEGKLALQTSGPLTTTDSSTLTITASPPLTTATGSLGIDLKEPIYTQNGKLGLKYGAPLHVTDDLNTLTVATGPGVTINNTSLQTKVTGALGFDSQGNMQLNVAGGLRIDSQNRRLILDVSYPFDAQNQLNLRLGQGPLFINSAHNLDINYNKGLYLFTASNNSKKLEVNLSTAKGLMFDATAIAINAGDGLEFGSPNAPNTNPLKTKIGHGLEFDSNKAMVPKLGTGLSFDSTGAITVGNKNNDKLTLWTTPAPSPNCRLNAEKDAKLTLVLTKCGSQILATVSVLAVKGSLAPISGTVQSAHLIIRFDENGVLLNNSFLDPEYWNFRNGDLTEGTAYTNAVGFMPNLSAYPKSHGKTAKSNIVSQVYLNGDKTKPVTLTITLNGTQETGDTTPSAYSMSFSWDWSGHNYINEIFATSSYTFSYIAQE
notes: Wild-type fiber on whole purified Ad5 virus particles; control vector; also called wild-type Ad5Luc; fiber unmodified control Ad5Luc vector
Turning to B8, the binding result in experiment [5] is listed as “no binding”.

B9: Ad.CXCR4E1 (conditionally replicative Ad5 with wild-type Ad5 fiber) (other)
chain: B8 chain
notes: Wild-type fiber on whole purified virus particles; control vector; also called control CRAd
Take B9: the binding result in experiment [6] was “no binding (tested: 1x10^3 vp per cell)”.

B10: JJB-B5 (VHH)
VHH: QVQLVETGGGLVQPGGSLRPSCTASGSIFSIYAMGWYRQASGKQRELVALITRDEVFNYADSVKGRFTISRDNAKDTVYLQMNSLKPEDTAVYYCWVETVNDHYNSGVEDYWGQGTQVTVSS
notes: as for B6
B10 registered an EC50 in experiment [1] of about 50 nM.
